Results from patent US20250340633A1 (DIATHEVA S R L, published 2025).

Legend:
[1] = molecular target: T1, CEACAM1 antigen (Diatheva) (UniProt P13688 35-428, limits assumed); assay: ELISA titration on coated CEACAM1; EC50 of the scFv against that of IgG4 clone 2
T1 construct: Purchased antigen; also called CEA Cell Adhesion Molecule 1
T1 sequence (looked up): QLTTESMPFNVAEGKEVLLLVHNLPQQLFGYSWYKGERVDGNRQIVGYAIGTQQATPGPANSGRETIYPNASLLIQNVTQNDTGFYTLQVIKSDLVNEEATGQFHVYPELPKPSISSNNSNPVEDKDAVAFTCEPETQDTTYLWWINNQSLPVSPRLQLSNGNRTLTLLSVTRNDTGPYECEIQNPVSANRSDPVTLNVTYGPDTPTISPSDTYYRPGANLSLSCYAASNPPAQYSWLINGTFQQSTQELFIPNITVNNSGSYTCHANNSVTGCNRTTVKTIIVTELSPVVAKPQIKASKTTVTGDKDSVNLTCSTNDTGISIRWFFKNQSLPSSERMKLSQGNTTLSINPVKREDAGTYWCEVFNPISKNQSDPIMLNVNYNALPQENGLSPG

[2] = molecular target: T1, CEACAM1 antigen (Diatheva); assay: ELISA titration on coated CEACAM1; EC50 of the scFv against that of IgG1 clone 12
[3] = molecular target: T1, CEACAM1 antigen (Diatheva); assay: ELISA titration on coated CEACAM1; detection with anti-His6 and anti-mouse HRP
Experimental: 96 wells microtiter plates (MAXISORB NUNC) were coated with 100 μl/well of CEACAM1 antigen (Diatheva) solution 1 μg/ml diluted in PBS pH 7.3 and incubated overnight (ON) at 37° C. Plates were washed five times with PBS added with 0.05% (v/v) Tween 20 pH 7.3 (PBST) (the same washing procedure was repeated after each incubation step during the assays) and then blocked with 1% (w/v) BSA dissolved in PBS (150 μl/well) and maintained at 37° C. for 60 min. After washing, serial dilutions of IgG1 or IgG4 in PBS containing 2% (w/v) not-fat dry milk (PBSM) were added to the plate (100 μl/well) and incubated for 90 min at 37° C. […] Finally, the detection was performed after addition of 2,2′-azino-bis(3-ethylbenzthiazoline-6-sulphonic acid) (ABTS; Roche, 10102946001) as substrate. The absorbance values were read by a microplate reader (Bio-Rad Laboratories) at 405 nm after 45 min. In FIG. 4 are reported the results obtained with IgG1 (black line) and IgG4 (grey line) antibodies purified after transient expression in HEK293T cells. The absorbance of the mock sample is shown by the dotted line. The ELISA assay highlighted a higher affinity for the CEACAM1 antigen of the antibody belonging to the IgG1 subclass compared to the same antibody with the IgG4 (S228P) constant region. […]

[4] = molecular target: T1, CEACAM1 antigen (Diatheva); assay: ELISA titration on coated CEACAM1; antibody from stable clone 2
Experimental: 96 wells microtiter plates (MAXISORB NUNC) were coated with 100 μl/well of CEACAM1 antigen (Diatheva) solution 1 μg/ml diluted in PBS pH 7.3 and incubated overnight (ON) at 37° C. Plates were washed five times with PBS added with 0.05% (v/v) Tween 20 pH 7.3 (PBST) (the same washing procedure was repeated after each incubation step during the assays) and then blocked with 1% (w/v) BSA dissolved in PBS (150 μl/well) and maintained at 37° C. for 60 min. After washing, serial dilutions of IgG1 or IgG4 in PBS containing 2% (w/v) not-fat dry milk (PBSM) were added to the plate (100 μl/well) and incubated for 90 min at 37° C. After washes, plates were incubated at 37° C. for 60 min with an anti-human Fc antibody HRP conjugated (Meridian) diluted 1:500 v/v in PBSM. Finally, the detection was performed after addition of 2,2′-azino-bis(3-ethylbenzthiazoline-6-sulphonic acid) (ABTS; Roche, 10102946001) as substrate. The absorbance values were read by a microplate reader (Bio-Rad Laboratories) at 405 nm after 45 min. In FIG. […] The absorbance of the mock sample is shown by the dotted line. The ELISA assay highlighted a higher affinity for the CEACAM1 antigen of the antibody belonging to the IgG1 subclass compared to the same antibody with the IgG4 (S228P) constant region. […]

[5] = molecular target: T1, CEACAM1 antigen (Diatheva); assay: ELISA titration on coated CEACAM1; antibody purified after transient expression in HEK293T
Experimental: Purified antibodies were analysed for their reactivity against CEACAM1 antigen in ELISA titration assay as follow:
(§1) 96 wells microtiter plates (MAXISORB NUNC) were coated with 100 μl/well of CEACAM1 antigen (Diatheva) solution 1 μg/ml diluted in PBS pH 7.3 and incubated overnight (ON) at 37° C. Plates were washed five times with PBS added with 0.05% (v/v) Tween 20 pH 7.3 (PBST) (the same washing procedure was repeated after each incubation step during the assays) and then blocked with 1% (w/v) BSA dissolved in PBS (150 μl/well) and maintained at 37° C. for 60 min. After washing, serial dilutions of IgG1 or IgG4 in PBS containing 2% (w/v) not-fat dry milk (PBSM) were added to the plate (100 μl/well) and incubated for 90 min at 37° C. After washes, plates were incubated at 37° C. for 60 min with an anti-human Fc antibody HRP conjugated (Meridian) diluted 1:500 v/v in PBSM. Finally, the detection was performed after addition of 2,2′-azino-bis(3-ethylbenzthiazoline-6-sulphonic acid) (ABTS; Roche, 10102946001) as substrate. The absorbance values were read by a microplate reader (Bio-Rad Laboratories) at 405 nm after 45 min. In FIG. 4 are reported the results obtained with IgG1 (black line) and IgG4 (grey line) antibodies purified after transient expression in HEK293T cells. The absorbance of the mock sample is shown by the dotted line. […]

[6] = molecular target: T1, CEACAM1 antigen (Diatheva); assay: ELISA titration on coated CEACAM1; antibody from stable clone 12
Experimental: as §1

B1: scFvDIATHIS-1 (scFv, V domains shown)
VH: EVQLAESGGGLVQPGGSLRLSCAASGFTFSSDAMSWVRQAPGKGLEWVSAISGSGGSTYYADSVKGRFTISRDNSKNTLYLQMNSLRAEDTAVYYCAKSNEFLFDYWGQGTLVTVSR
VL: SELTQDPAVSVALGQTVRITCQGDSLRSSYASWYRQRPGQAPVPVIYGKNNRPSGIPDRFSGSSSGNTASLTITGAQAEDEADYYCNSSYAWLPYVVFGGGTKLTVLG
notes: Single-chain fragment described in WO2011160859A1; Detection with an anti-His6 antibody implies a His6 tag
For B1, the “fold of EC50 against IgG4” value [1] was roughly 2 fold, the “fold of EC50 against IgG1” value [2] was roughly 4 fold and the EC50 [3] was 4.16 µg/mL.

B2: IgG4 (S228P) anti-CEACAM1 mAb (antibody, not shown: large carriers)
heavy: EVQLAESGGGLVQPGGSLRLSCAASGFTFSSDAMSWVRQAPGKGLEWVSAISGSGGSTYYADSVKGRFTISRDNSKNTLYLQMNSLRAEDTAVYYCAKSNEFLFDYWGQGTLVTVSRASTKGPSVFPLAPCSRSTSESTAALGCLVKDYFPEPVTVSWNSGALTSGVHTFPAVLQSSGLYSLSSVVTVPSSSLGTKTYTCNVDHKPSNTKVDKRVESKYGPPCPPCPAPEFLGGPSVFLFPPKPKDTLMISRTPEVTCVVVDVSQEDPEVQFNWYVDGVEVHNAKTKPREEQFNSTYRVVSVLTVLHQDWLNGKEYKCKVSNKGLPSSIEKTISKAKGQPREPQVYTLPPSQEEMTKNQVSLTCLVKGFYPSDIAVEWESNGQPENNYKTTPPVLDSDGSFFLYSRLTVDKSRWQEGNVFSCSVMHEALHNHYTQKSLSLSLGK
light: SELTQDPAVSVALGQTVRITCQGDSLRSSYASWYRQRPGQAPVPVIYGKNNRPSGIPDRFSGSSSGNTASLTITGAQAEDEADYYCNSSYAWLPYVVFGGGTKLTVLG
notes: also called IgG4 clone 2
For B2, the EC50 [4] was 2.55 µg/mL and the EC50 [5] was 26.7 µg/mL.

B3: DIA-12.3 IgG1 (antibody)
heavy: not shown
light: SELTQDPAVSVALGQTVRITCQGDSLRSSYASWYRQRPGQAPVPVIYGKNNRPSGIPDRFSGSSSGNTASLTITGAQAEDEADYYCNSSYAWLPYVVFGGGTKLTVLGGQPKANPTVTLFPPSSEELQANKATLVCLISDFYPGAVTVAWKADGSPVKAGVETTKPSKQSNNKYAASSYLSLTPEQWKSHRSYSCQVTHEGSTVEKTVAPTECS
notes: The preparation is named under assay in each row; also called IgG1 anti-CEACAM1 mAb; IgG1 clone 12
Work on B3 yielded an EC50 [6] of 1.27 µg/mL and an EC50 [5] of 12.8 µg/mL.
